Measured values reported in the supplement of paper PMC10567573.

B1: ZBED2 (parent)
chain: RAGHHPNQYATCRLCGRQVSRGPG

Variants of: B1
Assay: protein stability index of a GFP-peptide fusion (GPS, HEK-293T) (PSI 1-6); higher = more stable
Conditions: c terminus: a fixed tail appended
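Further: lentivirally expressed fusions sorted by FACS into six bins by GFP to DsRed ratio, PSI derived from sequencing read proportions per bin multiplied by bin number.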

Protein stability index of substitutions, site by site:
C15: H 1.93 | I 1.95 | K 3.16 | L 1.85 | N 2.19 | P 3.18 | R 2.83 | S 2.34 | T 3.44 | V 2.2 | Y 1.42
G16: C 1.25 | D 1.78 | E 2.46 | H 1.9 | K 1.51 | N 2.51 | P 2.41 | Q 1.81 | S 2.2 | T 1.41 | W 3.77 | Y 3.58
R17: A 1.69 | C 1.91 | D 2.96 | E 1.93 | F 1.96 | H 1.29 | I 1.86 | K 3.01 | L 2.64 | N 1.31 | Q 1.3 | S 1.79 | T 2.26 | V 1.49
Q18: A 2.44 | E 1 | F 2.67 | G 2.68 | H 2.59 | I 2.23 | M 2.17 | N 2.12 | P 2.69 | S 1.23 | W 1.27 | Y 2.51
V19: C 3.7 | E 1.7 | F 2.08 | G 2.53 | H 3.82 | I 1.37 | K 3.86 | M 1.48 | N 1.4 | P 1.98 | Q 2.48 | S 1.65 | T 2.22 | Y 2.24
S20: C 2.49 | D 1.93 | E 2.88 | F 1.79 | G 1.78 | H 1.76 | I 1.48 | K 1.88 | L 2.29 | M 2.4 | N 1.79 | P 2.53 | Q 2.21 | R 2.26 | T 1.91 | V 2.08 | W 1.59
R21: C 2.54 | E 2.45 | F 1.78 | H 2.04 | I 2.35 | K 1.69 | L 2.03 | M 1.68 | N 2.88 | Q 2.25 | S 1.65 | T 1.78 | Y 1.85
G22: A 2.21 | C 3.07 | D 1.64 | E 2.08 | F 1.55 | H 2.12 | I 1.9 | K 2.68 | L 2.48 | M 1.57 | N 2.29 | P 2.57 | R 1.95 | S 2.53 | T 2.24 | V 1.77 | W 1.46
P23: C 2.96 | D 2.85 | E 1.76 | F 1.54 | H 2.54 | I 2.27 | M 1.77 | N 1.88 | Q 2.11 | R 2.8 | S 2.05 | T 2.2 | V 1.84 | Y 1.54
G24: A 1.24 | C 1.53 | D 1.7 | E 2.35 | F 1.17 | H 2.15 | I 2.11 | K 2.03 | L 2.07 | M 2.17 | N 2.42 | P 1.71 | R 1.8 | S 1.56 | T 2.17 | V 1.61 | W 1.97 | Y 1.57
